± gives the uncertainty stated by the source.
Test: self-splicing fitness, log relative to wild type (ln ratio); higher = more splicing; Tetrahymena group I intron in knt gene, E. coli kanamycin selection, DiMSum; sequences stand for … in CUCUCU…GGAGGGAAAAGUUAUCAGGCAUGCACCUGGUAGCUAGUCUUUAAACCAAUAGAUUGCAUCGGUUUAAAAGGCAAGACCGUCAAAUUGCGGGAAAGGGGUCAACAGCCGUUCAGUACCAAGUCUCAGGGGAAACUUUGAGAUGGCCUUGCAAAGGGUAUGGUAAUAAGCUGACGGACAUGGUCCUAACCACGCAGCCAAGUCCUAAGUCAACAGAUCUUCUGUUGAUAUGGAUGCAGUUCACAGACUAAAUGUCGGUCGGGGAAGAUGUAUUCUUCUCAUAAGAUAUAGUCGGACCUCUCCUUAAUGGGAGCUAGCGGAUGAAGUGAUGCAACACUGGAGCCGCUGGGAACUAAUUUGUAUGCGAAAGUAUAUUGAUUAGUUUUGGAGUACUCGUGGUCG
In short: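 The eight P1ex-region nucleotides of an intron in the knt kanamycin-resistance gene on pET-22b(+) were all randomised and the library put into E. coli BL21(DE3). Six replicate transformations were grown overnight at 37°C or 30°C on LB agar with or without 25 μg/mL kanamycin, together with 100 μg/mL carbenicillin, 50 μM IPTG and 0.2% rhamnose. Colonies were pooled and amplicon-sequenced on an Illumina HiSeq 2500. Fitness from DiMSum is the error-weighted combination of wild-type-normalised replicate fold changes, kanamycin over none.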

Row | Sequence | self-splicing fitness (ln) (30 °C) | self-splicing fitness (ln) (37 °C)
1 | CUCAAGCAAUAUUACGUGCG | -2.81 ± 0.14 | -0.8 ± 0.12
2 | CUCAAGCAAUAUUACGUGGA | -3.76 ± 0.18 | -1.19 ± 0.084
3 | CUCAAGCAAUAUUACGUUGG | -2.93 ± 0.12 | -1.5 ± 0.13
4 | CUCCAGCAAUAUUACGACAA | -2.27 ± 0.23 | -2.29 ± 0.31
5 | CUCCAGCAAUAUUACGACAU | -4.008 ± 0.026 | -2.95 ± 0.039
6 | CUCCAGCAAUAUUACGACUG | -3.12 ± 0.14 | -2.83 ± 0.16
7 | CUCCAGCAAUAUUACGAGGC | -3.02 ± 0.3 | 
8 | CUCCAGCAAUAUUACGCACA | -1.38 ± 0.15 | -2.29 ± 0.27
9 | CUCCAGCAAUAUUACGCACC |  | -2.4 ± 0.45
10 | CUCCAGCAAUAUUACGCCAC | -2.7 ± 0.35 | 
11 | CUCCAGCAAUAUUACGCCAG | -3.19 ± 0.37 | -2.08 ± 0.46
12 | CUCCAGCAAUAUUACGCCUU | -2.33 ± 0.18 | -2.29 ± 0.27
13 | CUCCAGCAAUAUUACGCGGA | -3.39 ± 0.2 | -3.02 ± 0.22
14 | CUCCAGCAAUAUUACGCGGG | -3.86 ± 0.24 | -1.82 ± 0.23
15 | CUCCAGCAAUAUUACGCGUG | -2.19 ± 0.075 | -1.29 ± 0.085
16 | CUCCAGCAAUAUUACGCUAU | -3.89 ± 0.33 | -2.44 ± 0.22
17 | CUCCAGCAAUAUUACGCUGA | -2.59 ± 0.18 | -2.65 ± 0.22
18 | CUCCAGCAAUAUUACGGACU | -2.61 ± 0.24 | -2.07 ± 0.33
19 | CUCCAGCAAUAUUACGGCCU | -3.5 ± 0.2 | -1.63 ± 0.24
20 | CUCCAGCAAUAUUACGGGUU | -3.83 ± 0.2 | -2.91 ± 0.2
21 | CUCCAGCAAUAUUACGGUAA | -1.4 ± 0.13 | -1.8 ± 0.15
22 | CUCCAGCAAUAUUACGUAAG | -0.512 ± 0.053 | 0.0902 ± 0.076
23 | CUCCAGCAAUAUUACGUAUG | -2.03 ± 0.077 | -1.8 ± 0.087
24 | CUCCAGCAAUAUUACGUGAA | -1.24 ± 0.065 | -0.328 ± 0.09
25 | CUCCAGCAAUAUUACGUGCG | -3.63 ± 0.27 | -1.84 ± 0.18
26 | CUCCAGCAAUAUUACGUGUU | -3.62 ± 0.13 | -2.31 ± 0.11

Row | Sequence | self-splicing fitness (ln) (30 °C) | self-splicing fitness (ln) (37 °C)
27 | CUCCAGCAAUAUUACGUUGA | -2.56 ± 0.18 | -2.87 ± 0.19
28 | CUCCAGCAAUAUUACGUUUC | -3.65 ± 0.28 | -3.12 ± 0.3
29 | CUCGAGCAAUAUUACGACUU | -3.19 ± 0.19 | -1.73 ± 0.23
30 | CUCGAGCAAUAUUACGAGAG | -1.71 ± 0.28 | 
31 | CUCGAGCAAUAUUACGAUGU |  | -2.06 ± 0.3
32 | CUCGAGCAAUAUUACGCACC |  | -2.08 ± 0.32
33 | CUCGAGCAAUAUUACGCCAU | -2.93 ± 0.48 | -1.94 ± 0.35
34 | CUCGAGCAAUAUUACGCUCG | -2.72 ± 0.42 | 
35 | CUCGAGCAAUAUUACGGACA | -2.98 ± 0.33 | -1.35 ± 0.29
36 | CUCGAGCAAUAUUACGGGCU | -3.17 ± 0.23 | -3.24 ± 0.42
37 | CUCGAGCAAUAUUACGGGGA | -2.71 ± 0.2 | -1.17 ± 0.18
38 | CUCGAGCAAUAUUACGGGUA | -4.2 ± 0.39 | -1.81 ± 0.16
39 | CUCGAGCAAUAUUACGGUAA | -3.49 ± 0.25 | -1.88 ± 0.24
40 | CUCGAGCAAUAUUACGGUCG | -3.59 ± 0.28 | -2.38 ± 0.34
41 | CUCGAGCAAUAUUACGGUUC | -3.14 ± 0.22 | -2.49 ± 0.3
42 | CUCGAGCAAUAUUACGUAUG | -2.93 ± 0.14 | -1.2 ± 0.13
43 | CUCGAGCAAUAUUACGUCUU | -4.4 ± 0.21 | -3.37 ± 0.21
44 | CUCGAGCAAUAUUACGUGUU | -2.06 ± 0.16 | -1.97 ± 0.19
45 | CUCUAGCAAUAUUACGAACU |  | -4.2 ± 0.42
46 | CUCUAGCAAUAUUACGAUUA | -3.01 ± 0.29 | -2.85 ± 0.25
47 | CUCUAGCAAUAUUACGAUUU | -3.27 ± 0.19 | -3.01 ± 0.3
48 | CUCUAGCAAUAUUACGCAAG | -3.98 ± 0.27 | -1.95 ± 0.2
49 | CUCUAGCAAUAUUACGCAUU | -4.34 ± 0.39 | -4 ± 0.39
50 | CUCUAGCAAUAUUACGCGCG | -3.15 ± 0.27 | -2.86 ± 0.28
51 | CUCUAGCAAUAUUACGGAAA | -3.74 ± 0.3 | -3.54 ± 0.23
52 | CUCUAGCAAUAUUACGGAAC | -2.81 ± 0.47 | 

Row | Sequence | self-splicing fitness (ln) (30 °C) | self-splicing fitness (ln) (37 °C)
53 | CUCUAGCAAUAUUACGGAUC | -3.4 ± 0.21 | -3.33 ± 0.33
54 | CUCUAGCAAUAUUACGGAUG | -1.32 ± 0.092 | -0.418 ± 0.13
55 | CUCUAGCAAUAUUACGGAUU | -3.5 ± 0.21 | -2.75 ± 0.18
56 | CUCUAGCAAUAUUACGGCCG | -2.41 ± 0.22 | -2.2 ± 0.23
57 | CUCUAGCAAUAUUACGGCUA | -2.32 ± 0.26 | -1.28 ± 0.24
58 | CUCUAGCAAUAUUACGGGGC | -2.81 ± 0.27 | -2.64 ± 0.41
59 | CUCUAGCAAUAUUACGGGGU | -3.87 ± 0.25 | -3.39 ± 0.32
60 | CUCUAGCAAUAUUACGUAAC | -3.47 ± 0.29 | 
61 | CUCUAGCAAUAUUACGUAGA | -3.49 ± 0.27 | -1.6 ± 0.17
62 | CUCUAGCAAUAUUACGUAGG | -2.83 ± 0.18 | -1.9 ± 0.22
63 | CUCUAGCAAUAUUACGUUGU | -3.36 ± 0.2 | -3.68 ± 0.31
64 | CUGAAGCAAUAUUACGAACG | 0.17 ± 0.13 | 0.661 ± 0.17
65 | CUGAAGCAAUAUUACGAACU | -3.64 ± 0.19 | -2.37 ± 0.23
66 | CUGAAGCAAUAUUACGACAU | -0.393 ± 0.012 | 0.115 ± 0.033
67 | CUGAAGCAAUAUUACGACCA | -4.88 ± 0.41 | -1.22 ± 0.18
68 | CUGAAGCAAUAUUACGACGA | -1.04 ± 0.097 | -0.00885 ± 0.14
69 | CUGAAGCAAUAUUACGAGUA | -3.67 ± 0.28 | -2.63 ± 0.3
70 | CUGAAGCAAUAUUACGAGUG | 0.0379 ± 0.053 | 0.068 ± 0.084
71 | CUGAAGCAAUAUUACGAUUG | 0.168 ± 0.099 | -0.000234 ± 0.12
72 | CUGAAGCAAUAUUACGCCAG | -3.75 ± 0.29 | -1.17 ± 0.21
73 | CUGAAGCAAUAUUACGCCUG | -0.0552 ± 0.12 | 0.982 ± 0.16
74 | CUGAAGCAAUAUUACGCCUU | -4.07 ± 0.33 | -2.33 ± 0.31
75 | CUGAAGCAAUAUUACGGGCC | -3.65 ± 0.32 | 
76 | CUGAAGCAAUAUUACGGGCG | 0.0611 ± 0.06 | -0.103 ± 0.074
77 | CUGAAGCAAUAUUACGUAAC |  | -1.22 ± 0.24
78 | CUGAAGCAAUAUUACGUACC | -3.37 ± 0.36 | 

Row | Sequence | self-splicing fitness (ln) (30 °C) | self-splicing fitness (ln) (37 °C)
79 | CUGAAGCAAUAUUACGUAGC | -4.07 ± 0.28 | -3.43 ± 0.24
80 | CUGAAGCAAUAUUACGUAUA | -2.8 ± 0.18 | -2.19 ± 0.27
81 | CUGAAGCAAUAUUACGUCAU | -1.03 ± 0.093 | -0.736 ± 0.12
82 | CUGAAGCAAUAUUACGUCCA | -1.93 ± 0.25 | 
83 | CUGAAGCAAUAUUACGUCGC | -3.18 ± 0.16 | -1.55 ± 0.22
84 | CUGAAGCAAUAUUACGUGCA | -3.96 ± 0.27 | -2.82 ± 0.25
85 | CUGAAGCAAUAUUACGUGGC | -1.58 ± 0.077 | -0.491 ± 0.099
86 | CUGAAGCAAUAUUACGUGUG | -0.196 ± 0.046 | -0.0989 ± 0.067
87 | CUGCAGCAAUAUUACGAACG | 0.237 ± 0.087 | -0.269 ± 0.08
88 | CUGCAGCAAUAUUACGAAGA | -1.62 ± 0.23 | -2.17 ± 0.27
89 | CUGCAGCAAUAUUACGAAUG | -0.593 ± 0.066 | -0.0469 ± 0.081
90 | CUGCAGCAAUAUUACGAUCA | -3.57 ± 0.29 | -2.5 ± 0.2
91 | CUGCAGCAAUAUUACGAUUC |  | -2.05 ± 0.2
92 | CUGCAGCAAUAUUACGCAUC |  | -2.46 ± 0.3
93 | CUGCAGCAAUAUUACGCCAA |  | -1.67 ± 0.18
94 | CUGCAGCAAUAUUACGCCCG | -0.269 ± 0.098 | 0.148 ± 0.13
95 | CUGCAGCAAUAUUACGCCGG | -2.55 ± 0.19 | -1.56 ± 0.29
96 | CUGCAGCAAUAUUACGCGGC |  | -2.63 ± 0.34
97 | CUGCAGCAAUAUUACGCGUC | -3.98 ± 0.35 | -2.05 ± 0.32
98 | CUGCAGCAAUAUUACGCUGC | -2.88 ± 0.29 | 
99 | CUGCAGCAAUAUUACGGAUA | -3.58 ± 0.29 | -2.69 ± 0.25
100 | CUGCAGCAAUAUUACGGAUU | -3.49 ± 0.18 | -1.8 ± 0.16
101 | CUGCAGCAAUAUUACGGCUU | -4.37 ± 0.36 | -2.23 ± 0.28
